Consider 120 sequences from the supplement of paper PMC10126150.

± gives the standard deviation of the averaged measurements.
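Further: ATP exposure 15 min at 22 °C before imaging.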

In the data set the test system is ATP. Description: switch fluorescence ratio, 500 uM ATP over buffer (Cy3 cluster intensity, sum of 5 cycles each) (fold (ratio)); higher = stronger signal-on switching upon ATP binding; sequences stand for … in TCGTCGGCAGCGTCAGATGTGTATAAGAGACAGTTTTTTTTTTTTTTTTTTTTTTTTT…TC. To be noted: aptamer strand: ATP DNA aptamer (quencher-CACCTGGGGGAGTATTGCGGAGGAAGG + anchor), 100 nM annealed; ATP concentration: 500 uM. In short, it runs like this:
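Imaging in selection buffer was followed by imaging after 15 min with 500 uM ATP at 22 °C, for Cy3-labelled switching-strand clusters annealed to 100 nM quencher-labelled ATP aptamer on a modified Illumina MiSeq flow-cell. Five of these buffer/ATP cycles ran, separated by NaOH stripping and re-annealing. The fluorescence ratio per cluster is summed target-cycle over summed buffer-cycle Cy3 intensity, averaged per switch-domain sequence; clusters outside 100-1000 RFU were removed.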
For the sequence TCGATGTCGT, the switch fluorescence ratio stood at 0.9927 ± 0.0059. Under TTGTTGGTTA stands 0.9925 ± 0.0028. Under TCATGGATCC stands 1.01 ± 0.035; under AAAAGGGCAT, 1.01 ± 0.015. For CCAGGTCATA the value was 1.07 ± 0.011. Consider GTTTTTGAAA, for which the switch fluorescence ratio was determined as 0.982 ± 0.037. For CCGGACTATC the value was 2.4 ± 0.086. As to AACAGAGTTA, the switch fluorescence ratio worked out at 1.02 ± 0.013. Under GGGGCGGCGT stands 1.02 ± 0.065; under AATGAGATTG, 0.989 ± 0.012; under GGACCATGAC, 1.14 ± 0.0075. Under GATCTTAACG stands 0.9912 ± 0.0096; under CCGTATAGCT, 1.24 ± 0.039; under AAGAAATTAA, 1.01 ± 0.045. For ATGGACAGGT the value was 1.04 ± 0.031. As for AAAGCTTTTC, the switch fluorescence ratio stood at 1.07 ± 0.01. For TTAAGTTCAT the value was 0.9806 ± 0.0067; for ACGTTGCTGA, 1.02 ± 0.028; for GCGCTGTGTG, 1 ± 0.041. For CAAGGTTGAA the value was 0.9902 ± 0.0079. In the case of CGTGGGTTCC, the switch fluorescence ratio amounted to 0.989 ± 0.038. For AGGATAGGAG the value was 0.9957 ± 0.0014; for GTGAGGGGGT, 1.06 ± 0.14. Under AAGCAGGTGG stands 1.052 ± 0.0096; under TGAATCCATT, 1 ± 0.036; under CAACACGGCA, 1.11 ± 0.026. For GTGGTATGGT the value was 1.02 ± 0.025. AAATAAATTT: the switch fluorescence ratio came out at 1.01 ± 0.055.

On to TTTGGTTGGA, for which the switch fluorescence ratio turned out to be 0.992 ± 0.038. Under GGTTGATATG stands 1 ± 0.041.

With TTAGGGAGTT, the switch fluorescence ratio stood at 0.9784 ± 0.0062. Under CGGTTCGGGC stands 0.983 ± 0.023; under AATAATCAAA, 1.01 ± 0.006. For GGTCCATGGG the value was 0.967 ± 0.035; for TTTGGGGATT, 1.01 ± 0.036; for TGAACCAGGG, 1.05 ± 0.018. For CCATAAACTA the value was 1.01 ± 0.066. As for AATCTGGACG, the switch fluorescence ratio turned out to be 1.06 ± 0.048. With AGGTGGGCAG, the switch fluorescence ratio was 0.984 ± 0.018. For GTGTACTCGA the value was 1.04 ± 0.019; for CGTGTTCGGA, 0.977 ± 0.016; for TTCGTTCTTC, 0.993 ± 0.019.

TGTTTTGAGC: the switch fluorescence ratio turned out to be 1 ± 0.037. Under ATTTGGCTGG stands 0.986 ± 0.015. For GGTAAAGACG, the switch fluorescence ratio was determined as 0.992 ± 0.013.

TCCTTGGAGG: the switch fluorescence ratio stood at 0.989 ± 0.028. For AACCGGGGGG the value was 0.994 ± 0.045; for GGGTTCCGTG, 1.01 ± 0.024; for AGAAAAGTAC, 1.08 ± 0.076.

For the sequence ATAAACGTTT, the switch fluorescence ratio was found to be 1.018 ± 0.0069.

Regarding ACAGGGATCA, the switch fluorescence ratio was 0.981 ± 0.052.

For the sequence TTTTTCCGTG, the switch fluorescence ratio was 0.9819 ± 0.0037. For TTACGGATGT the value was 1.02 ± 0.012; for TTTTTTTCTT, 0.994 ± 0.024. CCGTTTCCGG: the switch fluorescence ratio was found to be 1.02 ± 0.027. For CCAATATAGC, the switch fluorescence ratio stood at 1.21 ± 0.016. For CATACAATTG the value was 1.06 ± 0.091; for ACGGATCCTT, 1.026 ± 0.0059; for ATGTAGTAGT, 1 ± 0.034. Under TGCTCCTTTT stands 1 ± 0.034; under ATGATCGATG, 0.979 ± 0.026. Under TCCGAGGGAG stands 1.05 ± 0.079.

With TTTTAAAGGC, the switch fluorescence ratio worked out at 1.02 ± 0.031. For ATTATCTTGG the value was 1.05 ± 0.064; for CGACTTTTAT, 0.9818 ± 0.0046. Under GAATATTGTA stands 0.988 ± 0.013; under TCCGTGAGTG, 1.07 ± 0.031. Under TGGACGCGGG stands 1.03 ± 0.016.

With CATTCTACGT, the switch fluorescence ratio was 1.04 ± 0.018. Under TGTTGTGGGT stands 1.002 ± 0.0063; under GCCCGAGCAG, 1.22 ± 0.062; under GGGGTCCGTG, 0.993 ± 0.067. For CGTGCTGCAA the value was 4.91 ± 1.7; for TGGCGTAGTT, 0.991 ± 0.037; for CAGAAGGGCG, 1 ± 0.036. In the case of GTTTGCCCTG, the switch fluorescence ratio was 0.99 ± 0.022.

As for CAAGGGTTGC, the switch fluorescence ratio came out at 0.987 ± 0.056.

As for TTGTCTCTTT, the switch fluorescence ratio was 0.9932 ± 0.0062. In the case of AGGACGGCAG, the switch fluorescence ratio amounted to 0.964 ± 0.13. For TTGACGTATT the value was 0.9874 ± 0.006; for TTAGTTGAGT, 1.02 ± 0.028. Under AAATCGCCTT stands 1.05 ± 0.02. Under CGGGAGGTCG stands 1.05 ± 0.082; under TTTTAATTTA, 1.03 ± 0.043; under GTTGCGAGGT, 0.9872 ± 0.004. Regarding TTTAAAGTGT, the switch fluorescence ratio was 0.997 ± 0.029. Under GTTGGGTGGT stands 0.968 ± 0.01; under CGGAAATGAA, 0.9824 ± 0.0028; under GGCCCGGTGC, 1.08 ± 0.12. For CAAGAGGGTT the value was 0.99 ± 0.032; for ACGCCCATTT, 1.15 ± 0.06. For TGGGTTATCG the value was 0.998 ± 0.025.

As for TTATTGGGAC, the switch fluorescence ratio turned out to be 0.972 ± 0.02.

Regarding GTTGTATGAT, the switch fluorescence ratio came to 0.9841 ± 0.0096.

Turning to TTCAAATTTA, the switch fluorescence ratio was 0.995 ± 0.025. As for TTTGGCGAAA, the switch fluorescence ratio was 1.01 ± 0.019. GGTGTTATGC: the switch fluorescence ratio turned out to be 1.01 ± 0.015. Under GTGTGAACGG stands 0.958 ± 0.018; under GCTAGGGGGG, 1 ± 0.04; under TACTTTGGGG, 0.989 ± 0.022.

Consider CTAATTGGTT, for which the switch fluorescence ratio was found to be 0.988 ± 0.015.

Regarding GAGGGATACA, the switch fluorescence ratio came out at 0.99 ± 0.043. For TGAGGTACTA the value was 0.999 ± 0.053; for TCAAACCGGT, 0.983 ± 0.043.

For GGGGGAGGCG, the switch fluorescence ratio turned out to be 1.03 ± 0.082. On to AGTTGATCCC, for which the switch fluorescence ratio turned out to be 1.02 ± 0.025. For TGAATTCCAT the value was 0.983 ± 0.023; for TTTTATGCGT, 0.993 ± 0.033; for TTAATTTTTG, 0.996 ± 0.029. Under GAAGTCCGCG stands 1.42 ± 0.077.

For the sequence GATAATGGGT, the switch fluorescence ratio was 0.976 ± 0.042.

In the case of TAGGGCTCAG, the switch fluorescence ratio was determined as 0.9928 ± 0.0098. For TCGGCCATGG the value was 0.985 ± 0.031. Under AACTTAAATT stands 1.01 ± 0.021. As for GCGCAAGGGG, the switch fluorescence ratio is 1.01 ± 0.015. For GGGGTAAGTG the value was 0.987 ± 0.04; for TCATTTACAT, 1.04 ± 0.037. Under CGATCCTTTT stands 1.05 ± 0.029; under GGGTTGAAAA, 0.999 ± 0.039; under ATGTGGGGGA, 1.02 ± 0.015.
